This is an account of results in US20060199228A1 (KING S COLLEGE LONDON, published 2006).

B1: preproinsulin peptide C19-A3 (peptide)
peptide: GSLQPLALEGSLQKRGIV
notes: Synthetic peptide; also called PI C19-A3; Proinsulin C19-A3

The target in this experiment is T1, HLA-DR4 immunoaffinity-purified from Priess EBV-transformed B cells (DRB1*0401).
T1 construct: Detergent-solubilised native protein, purified with the anti-HLA-DR mAb L243; Priess cells also carry DRw53, which the L243 column would not separate; The elution used cells pulsed with preproinsulin; also called soluble HLA-DR4
Briefly: competition against 2.5 µM biotinylated invariant chain 98-117 for purified HLA-DR4, L243 capture, DELFIA. The procedure:
A further selection step was applied based on the following novel initiative. […] HLA-DR4 molecules used in this assay were purified from resting, unmanipulated Priess cell pellets, using the immunoaffinity column approach described above in method 1.1. […] Plates were incubated for a further 1 hour at room temperature and washed 5 times in TBST. Europium-conjugated streptavidin (Perkin Elmer Ltd., Hounslow, UK) was added at 1 μg/ml in dissociation-enhanced time-resolved fluoroimmunoassays (DELFIA) assay buffer (Wallac Oy, Turku, Finland) and incubated for 45 minutes at room temperature. Wells were washed a further 5 times in TBST and 100 μl DELFIA enhancement solution added to each well. Fluorescent intensity was measured in a DELFIA fluorimeter.
With EDLQVGQVELGGGPGAGSLQPLAL [preproinsulin peptide C3-C26], the IC50 is 3000 nM.
Molecule DLQVGQVELGGGPGAGSLQPLALE [preproinsulin peptide C4-C27] had an IC50 of 3000 nM.
As for QPLALEGSLQKRGIVEQ (Synthetic peptide) [preproinsulin peptide C22-A5], the IC50 worked out at 400 nM.
As for B1, the IC50 amounted to 500 nM.
In turn, GGGPGAGSLQPLALEGSLQK (Synthetic peptide; also called C13-32) [preproinsulin peptide C13-C32] came in with an IC50 of 5000 nM.

The IC50 is the concentration at which inhibition is half-maximal. Low readings indicate inhibition by little substance, high ones a need for much substance.
